According to patent publication US20170267766A1:

Assays:
[1] = molecular target: monkey IGF-1R (on COS-7 cells) (African green monkey); experiment: FACS titration, Cos-7
[2] = molecular target: human IGF-1R (native, on cells) (human) (UniProt P08069); experiment: FACS titration, MCF-7
[3] = molecular target: human IGF-1R (native, on cells) (human) (UniProt P08069); experiment: cell-based or functional assay
[4] = molecular target: soluble recombinant human IGF-1R hetero-tetramere with C-terminal 10-His tag (R&D Systems 305-GR) (human) (UniProt P08069); experiment: SPR Biacore X100, Ln(2)/koff, mean of 4
[5] = molecular target: soluble recombinant human IGF-1R hetero-tetramere with C-terminal 10-His tag (R&D Systems 305-GR) (human) (UniProt P08069); experiment: SPR Biacore X100, His-captured h-IGF-1R ~600 RU, mean of 4
[6] = molecular target: monkey IGF-1R (on COS-7 cells) (African green monkey); experiment: FACS on COS-7 cells, 4°C; inset table, axis log [M] (Table 14b prints it rounded as 5.1E-10)
[7] = molecular target: human IGF-1R (native, on cells) (human) (UniProt P08069); experiment: FACS on MCF-7 cells, 4°C; inset table, axis log [M] (Table 14b prints it rounded as 7.09E-10)

B1: hz208F2 H026/L024 (antibody, from a related filing, V domains shown)
VH: QVQLVQSGAEVKKPGASVKMSCKASGYTFTSYYIYWVKQAPGQGLEWLGWIWPGDGSTKYNEKFQGRVTLTADKSSNTAYMFLSSLRSEDTAVYFCASPMITPNYAMDYWGQGTLVTVSS
VL: DIQMTQSPSSLSASVGDRVTISCRASQDISKYLNWYQQKPGKAPKLLIYYTSRLHSGVPSRFSGRGSGTDYSLTISNLQPEDFATYFCQQGSTLPYTFGGGTKVEIKR
[1]
  EC50: 510 pM
[2]
  EC50: 709 pM
[3]
  % internalization: 87%
  ΔMFI (MCF-7, 10 µg/ml, 4 h): 344 MFI
[4]
  half-life of the complex: 2 to 3 h
[5]
  Kd: 60 pM
[6]
  EC50: 511 pM
[7]
  EC50: 710 pM
